Variants at the floor of the assay were thinned out.

In data set [1] the test system is biotinyl-Trp-oxazolone. The data set can be described thus: self-aminoacylation, catalytic enhancement (BWO) (fold over background); higher = more active; k-Seq, kA / k0A0; sequences stand for … in GGGAAUGGAUCCACAUCUACGAAUUC…UUCACUGCAGACUUGACGAAGCUG
The method in brief:
(§1)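 Catalytic enhancement equals the median kA over the uncatalyzed rate, the latter read from the low-activity peak of a bimodal Gaussian fit. Values of kA came from fitting each sequence's fraction reacted to a pseudo-first-order model, with 1000 bootstraps. Reacted RNA was captured with streptavidin and quantified by triplicate qPCR and Illumina sequencing after 90 minutes at room temperature with 2–1250 μM biotinyl-aminoacyl-oxazolone and 0.43 μM mutagenized RNA pools bearing a 21-nt variable region.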

Data set [2] concerns biotinyl-Phe-oxazolone. Nature of the data set: self-aminoacylation, catalytic enhancement (BFO) (fold over background); higher = more active; k-Seq, kA / k0A0; sequences stand for … in GGGAAUGGAUCCACAUCUACGAAUUC…UUCACUGCAGACUUGACGAAGCUG
The essentials:
as §1

In data set [3] the test system is biotinyl-Val-oxazolone. Nature of the data set: self-aminoacylation, catalytic enhancement (BVO) (fold over background); higher = more active; k-Seq, kA / k0A0; sequences stand for … in GGGAAUGGAUCCACAUCUACGAAUUC…UUCACUGCAGACUUGACGAAGCUG
The essentials: as §1

Data set [4] has as its system biotinyl-Leu-oxazolone. The data set can be described thus: self-aminoacylation, catalytic enhancement (BLO) (fold over background); higher = more active; k-Seq, kA / k0A0; sequences stand for … in GGGAAUGGAUCCACAUCUACGAAUUC…UUCACUGCAGACUUGACGAAGCUG
The essentials: as §1

In data set [5] the test system is biotinyl-Met-oxazolone. Nature of the data set: self-aminoacylation, catalytic enhancement (BMO) (fold over background); higher = more active; k-Seq, kA / k0A0; sequences stand for … in GGGAAUGGAUCCACAUCUACGAAUUC…UUCACUGCAGACUUGACGAAGCUG
The method in brief: as §1

Data set [6] concerns biotinyl-Ile-oxazolone. The data set can be described thus: self-aminoacylation, catalytic enhancement (BIO) (fold over background); higher = more active; k-Seq, kA / k0A0; sequences stand for … in GGGAAUGGAUCCACAUCUACGAAUUC…UUCACUGCAGACUUGACGAAGCUG
The method in brief:
as §1

On to “CCGCCCUUCAAGCAAUCGGUC [Fam1B.1 aminoacylation ribozyme variant]”, for which the self-aminoacylation in data set [1] was 29.9; in data set [2] it was 38.9; in data set [3], 2.62; in data set [4] it was 2.13.
For the sequence “AUUACCCUGGUCAGCGAGUGG [Fam2.1 aminoacylation ribozyme variant]”, the self-aminoacylation in data set [1] worked out at 2.61; in data set [2], 2.26; in data set [4] it was 2.51; in data set [5], 2.51.
As for “AUUCACCUAGGUCACCGGGUC [Fam2.2 aminoacylation ribozyme variant]”, in data set [3], the self-aminoacylation came out at 2.18.
“AGUACCCUGGUCAUCGAGUAA [Fam2.1 aminoacylation ribozyme variant]”: the self-aminoacylation in data set [2] amounted to 3.84; in data set [4], 2.52; in data set [5], 2.71.
Turning to “AUUAACCUAGUUCAUCGGGUG [Fam2.2 aminoacylation ribozyme variant]”, the self-aminoacylation was determined as 2.54 in data set [1], 12.3 in data set [2], 2.71 in data set [4] and 2.14 in data set [5].
Consider “CCACACUUCAAGCAAUCGGCG [Fam1B.1 aminoacylation ribozyme variant]”, for which the self-aminoacylation was 2.05 in data set [1], 2.18 in data set [3] and 2.16 in data set [5].
“CUUCACCUAGGUCAACGGGUG [Fam2.2 aminoacylation ribozyme variant]”: the self-aminoacylation in data set [2] turned out to be 9.32; in data set [4], 2.48; in data set [5], 2.28.
With “AAGUCUGCUAAUAGUCGCAAG [Fam3.1 aminoacylation ribozyme variant]”, the self-aminoacylation in data set [1] was 9.75; in data set [2] it was 51.8; in data set [5], 2.44.
Taken in the same sequence, the figures for “AUUCACCUAGCUUAUCGGGUG [Fam2.2 aminoacylation ribozyme variant]” were 2.2, 4.71 and 2.12.
With “AUUCACCUAGGUUAUCGGGGG [Fam2.2 aminoacylation ribozyme variant]”, the self-aminoacylation turned out to be 2.02 in data set [1], 6.72 in data set [2], 2.01 in data set [3] and 2.29 in data set [4].
Turning to “CCACACUUCAAGCCAUCCGUC [Fam1B.1 aminoacylation ribozyme variant]”, the self-aminoacylation in data set [6] amounted to 2.04.
With “AACUUUGCUAAUAGUUGCAAG [Fam3.1 aminoacylation ribozyme variant]”, the self-aminoacylation in data set [2] turned out to be 3.03; in data set [6], 2.21.
As to “CCACACUUCAAGCAACCGGUU [Fam1B.1 aminoacylation ribozyme variant]”, the self-aminoacylation in data set [3] amounted to 2.04.
With “AUUCACCUAGAUCAUAGGGUG [Fam2.2 aminoacylation ribozyme variant]”, the self-aminoacylation was 2.9 in data set [1]; 13.6 in data set [2]; 2.07 in data set [3]; 4.64 in data set [4]; 3.97 in data set [5].
For “AUUCACCUAGGUCAACUGGUG [Fam2.2 aminoacylation ribozyme variant]”, the self-aminoacylation in data set [1] amounted to 2.21; in data set [2] it was 15.9; in data set [4] it was 3.35; in data set [5] it was 2.69.
The corresponding values for “AUUACGCUCGUCAUCGAGUGA [Fam2.1 aminoacylation ribozyme variant]” are 2.54, 3.68, 2.5 and 2.09.
Take “CUUACCUUGGUCAUCGAGUGA [Fam2.1 aminoacylation ribozyme variant]”: the self-aminoacylation worked out at 3.9 in data set [1]; 3.62 in data set [2]; 2.66 in data set [3]; 2.99 in data set [4]; 3.25 in data set [5].
The corresponding values for “AUUACCCUGGUCAUCGCGUCA [Fam2.1 aminoacylation ribozyme variant]” are 2.27, 12.2, 2.03, 2.14 and 2.38.
For “CCACACUUCAAGCAAACGGGC [Fam1B.1 aminoacylation ribozyme variant]”, the self-aminoacylation in data set [3] amounted to 2.03.
Consider “AUUACCGUGGUCAUCAAGUGA [Fam2.1 aminoacylation ribozyme variant]”, for which the self-aminoacylation was 3.6 in data set [1], 4.54 in data set [2], 3.05 in data set [4] and 2.83 in data set [5].
Taken in the same sequence, the figures for “AUUACCCUGGUCAUCUCGUGA [Fam2.1 aminoacylation ribozyme variant]” were 2.81, 12.4, 2.62 and 2.37.
For the sequence “AAGUUUGCCAAUAGUCGCAAU [Fam3.1 aminoacylation ribozyme variant]”, the self-aminoacylation amounted to 3.5 in data set [1], 9.89 in data set [2] and 2.07 in data set [5].
With “CCACACUUCACGCAAUCGCUC [Fam1B.1 aminoacylation ribozyme variant]”, the self-aminoacylation in data set [3] was 2.19.
With “AUUCACCUUGGUCAUCUGGUG [Fam2.2 aminoacylation ribozyme variant]”, the self-aminoacylation is 2.75 in data set [1]; 17.9 in data set [2]; 2.16 in data set [3]; 3.3 in data set [4]; 2.82 in data set [5].
As to “AUUACACUGGUCAUCCAGUGA [Fam2.1 aminoacylation ribozyme variant]”, the self-aminoacylation in data set [1] was found to be 3.06; in data set [2], 9.37; in data set [4], 3.01; in data set [5] it was 3.47.
As for “AUUACCCUGCUCAUCGUGUGA [Fam2.1 aminoacylation ribozyme variant]”, the self-aminoacylation in data set [1] came out at 3.19; in data set [2] it was 14.7; in data set [4], 2.85; in data set [5], 2.7.
Regarding “CAGUUUGCUAAUAGUCGCAAU [Fam3.1 aminoacylation ribozyme variant]”, the results for the self-aminoacylation in data set [2] and in data set [6] were 2 and 2.06, respectively.
Take “CCACACCUCAAGCAAUCGGCC [Fam1B.1 aminoacylation ribozyme variant]”: the self-aminoacylation in data set [1] was determined as 2.61; in data set [3], 2.42.
For “CCACACAUCAAGCAAUCGGGC [Fam1B.1 aminoacylation ribozyme variant]”, the self-aminoacylation was found to be 2.1 in data set [1] and 2.01 in data set [6].
